# Assay results reported in US20160177307.
# Legend:
# Assay in all cases: filter
# [1] = target: PDGF-BB (platelet-derived growth factor BB) (Homo sapiens) (UniProt P01127)
# [2] = system: T1, VEGF-121 (Homo sapiens), P15692-9
# T1 sequence: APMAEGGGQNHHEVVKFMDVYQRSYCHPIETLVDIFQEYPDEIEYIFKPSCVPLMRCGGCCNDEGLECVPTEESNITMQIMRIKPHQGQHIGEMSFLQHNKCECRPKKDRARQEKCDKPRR
# [3] = system: T2, VEGF-165 (Homo sapiens), P15692-4
# T2 sequence: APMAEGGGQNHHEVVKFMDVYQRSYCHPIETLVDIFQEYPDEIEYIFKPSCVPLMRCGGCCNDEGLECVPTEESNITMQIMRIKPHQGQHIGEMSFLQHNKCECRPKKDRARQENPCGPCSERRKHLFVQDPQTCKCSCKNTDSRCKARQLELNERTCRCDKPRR
# [4] = Nap-dU, Bn-dU, MBn-dU, 2'-OMe, C3, 3 Heg between parts
# [5] = Nap-dU, Bn-dU, MBn-dU, 2'-OMe, C3, 4 Heg between parts
# [6] = Nap-dU, Bn-dU, MBn-dU, 2'-OMe, C3, 5 Heg between parts
# [7] = Nap-dU, Bn-dU, MBn-dU, 2'-OMe, C3, 6 Heg between parts
# [8] = PDGF-VEGF, no Heg linker, NapdU, BndU
# [9] = Bn-dU, MBn-dU, Nap-dU, 2'-OMe, C3, 2 Heg between parts
# [10] = Bn-dU, MBn-dU, Nap-dU, 2'-OMe, C3, 4 Heg between parts
# [11] = Bn-dU, MBn-dU, Nap-dU, 2'-OMe, C3, 5 Heg between parts
# Sequence of PDGF-BB (platelet-derived growth factor BB) (Homo sapiens) (P01127 82-190): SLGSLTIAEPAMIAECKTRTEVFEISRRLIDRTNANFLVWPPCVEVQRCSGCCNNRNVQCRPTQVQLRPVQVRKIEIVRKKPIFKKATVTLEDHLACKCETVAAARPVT
sequence,measurement,setting,value
CCGTTCAAGTGCTTGTAGGATTTAAATGGTTACGTTACCGCGTTTATAGCG [4149-8_410],Kd,[1]; [4],20 pM
same,Kd,[2]; [4],26 pM
same,Kd,"[3]; Nap-dU, Bn-dU, MBn-dU, 2'-OMe, C3; 3 Heg between parts",33 pM
CCGTTCAAGTGCTTGTAGGATTTAAATGGTTACGTTACCGCGTTTATAGCG [4149-8_411],Kd,[1]; [5],7.2 pM
same,Kd,[2]; [5],20 pM
same,Kd,"[3]; Nap-dU, Bn-dU, MBn-dU, 2'-OMe, C3; 4 Heg between parts",45 pM
CCGTTCAAGTGCTTGTAGGATTTAAATGGTTACGTTACCGCGTTTATAGCG [4149-8_412],Kd,[1]; [6],8.6 pM
same,Kd,[2]; [6],20 pM
same,Kd,"[3]; Nap-dU, Bn-dU, MBn-dU, 2'-OMe, C3; 5 Heg between parts",45 pM
CCGTTCAAGTGCTTGTAGGATTTAAATGGTTACGTTACCGCGTTTATAGCG [4149-8_413],Kd,[1]; [7],10 pM
same,Kd,[2]; [7],40 pM
same,Kd,"[3]; Nap-dU, Bn-dU, MBn-dU, 2'-OMe, C3; 6 Heg between parts",63 pM
CCGTTCAAGTGCTTGTATGATTTAAATGGA [4867-31_153],Kd,[2]; P=Nap-dU,210 pM
CCGTTCAAGTGCTTTAGATTTAAATGG [4867-31_184],Kd,"[2]; NapdU at P, C3 spacer 15,18, 2'-OMe 9,17",84 pM
CCGTTCAAGTGCTTTAGATTTAAATGG [4867-31_185],Kd,"[2]; NapdU at P, C3 spacer 15,18, 2'-OMe 6,9,12,17,28,29",260 pM
CCGTTCAAGTGCTTTAGATTTAAATGG [4867-31_186],Kd,"[2]; NapdU at P, C3 spacer 15,18, 2'-OMe 1,6,9,12,17,25,28,29",1600 pM
CCGTTCAAGTGCTTTAGGATTTAAATGG [4867-31_187],Kd,"[2]; 2'-OMe G9,A17, C3 spacer at 15, all P are NapdU, target taken as VEGF-121",32 pM
CCGTTCAAGTGCTTTAGGATTTAAATGG [4867-31_188],Kd,"[2]; NapdU at P, C3 spacer 15, 2'-OMe 9,17,18,28,29 as printed",38 pM
CCGTTCAAGTGCTTTAGGATTTAAATGG [4867-31_189],Kd,"[2]; NapdU at P, C3 spacer 15, 2'-OMe 9,17,18,25,28,29 as printed",900 pM
CCGTTCAAGTGCTTTAGGATTTAAATGG [4867-31_190],Kd,"[2]; NapdU at P, C3 spacer 15, 2'-OMe 9,17,18,22,28,29 as printed",89 pM
CCGTTCAAGTGCTTTTAGGATTTAAATGGA [4867-31_150],Kd,[2]; P=Nap-dU,240 pM
CCGTTGAAGTGCTTGTAGGATTTAAATGGA [4867-31_146],Kd,[2]; P=Nap-dU,5980 pM
CCGTTTAAGTGCTTGTAGGATTTAAATGGA [4867-31_147],Kd,[2]; P=Nap-dU,3280 pM
CCTCCATCAGCCGTTCAAGTGCTTGTAGGATTTAAATGGAATTGGAGGA [4867-15_24],Kd,"[2]; P=Nap-dU, C3 spacer at 1",110 pM
CCTCCATCAGCCGTTCAAGTGCTTGTAGGATTTAAATGGAATTGGAGGA [4867-15_25],Kd,"[2]; P=Nap-dU, C3 spacer at 2",130 pM
CCTCCATCAGCCGTTCAAGTGCTTGTAGGATTTAAATGGAATTGGAGGA [4867-15_26],Kd,"[2]; P=Nap-dU, C3 spacer at 3",200 pM
CGACAGCATGTATGCACATCTCCGTTCAAGTGCTTGTAGGATTTAAATGG [5169-4_99],Kd,"[1]; PDGF-6Heg-VEGF, NapdU, 2'-OMe",2.1 pM
same,Kd,"[2]; PDGF-6Heg-VEGF, NapdU, 2'-OMe",120 pM
CGACAGCATGTATGCACATCTCCGTTCAAGTGCTTGTAGGATTTAAATGG [5169-4_100],Kd,"[1]; PDGF-5Heg-VEGF, NapdU, 2'-OMe",1.5 pM
same,Kd,"[2]; PDGF-5Heg-VEGF, NapdU, 2'-OMe",56 pM
CGACAGCATGTATGCACATCTCCGTTCAAGTGCTTGTAGGATTTAAATGG [5169-4_101],Kd,"[2]; PDGF-4Heg-VEGF, NapdU, 2'-OMe",130 pM
CGACAGCATGTATGCACATCTCCGTTCAAGTGCTTGTAGGATTTAAATGG [5169-4_102],Kd,"[1]; PDGF-3Heg-VEGF, NapdU, 2'-OMe",11 pM
same,Kd,"[2]; PDGF-3Heg-VEGF, NapdU, 2'-OMe",140 pM
CGACAGCATGTATGCACATCTCCGTTCAAGTGCTTGTAGGATTTAAATGG [5169-4_103],Kd,"[1]; PDGF-2Heg-VEGF, NapdU, 2'-OMe",6.1 pM
same,Kd,"[2]; PDGF-2Heg-VEGF, NapdU, 2'-OMe",120 pM
CGACAGCATGTATGCACATCTCCGTTCAAGTGCTTGTAGGATTTAAATGG [5169-4_104],Kd,"[1]; PDGF-1Heg-VEGF, NapdU, 2'-OMe",4.6 pM
same,Kd,"[2]; PDGF-1Heg-VEGF, NapdU, 2'-OMe",280 pM
GCCGTTCAAGTGCTTGTAGGATTTAAATGG [4867-31_144],Kd,[2]; NapdU at P,200 pM
TTACGTTACACGCGTTTATAGCGCCGTTCAAGTGCTTTAGATTTAAATG [4149-8_317],Kd,[1]; [8],63.8 pM
same,Kd,[2]; [8],80.9 pM
TTACGTTACCGCGTTTATAGCGCCGTTCAAGTGCTTGTAGGATTTAAATGG [4149-8_401],Kd,"[2]; PDGF_379-3Heg-VEGF_192, NapdU, BndU, MBndU, 2'-OMe, 5' amino linker",27 pM
TTACGTTACCGCGTTTATAGCGCCGTTCAAGTGCTTGTAGGATTTAAATGG [4149-8_414],Kd,[1]; [9],10 pM
same,Kd,[2]; [9],23 pM
same,Kd,"[3]; Bn-dU, MBn-dU, Nap-dU, 2'-OMe, C3; 2 Heg between parts",51 pM
TTACGTTACCGCGTTTATAGCGCCGTTCAAGTGCTTGTAGGATTTAAATGG [4149-8_415],Kd,[1]; [10],8.1 pM
same,Kd,[2]; [10],40 pM
same,Kd,"[3]; Bn-dU, MBn-dU, Nap-dU, 2'-OMe, C3; 4 Heg between parts",30 pM
TTACGTTACCGCGTTTATAGCGCCGTTCAAGTGCTTGTAGGATTTAAATGG [4149-8_416],Kd,[1]; [11],8.9 pM
same,Kd,[2]; [11],41 pM
same,Kd,"[3]; Bn-dU, MBn-dU, Nap-dU, 2'-OMe, C3; 5 Heg between parts",30 pM
